According to patent US20250243263A1:
pKd: −log10 of the molar value.

Assays:
[1] = target: Tau217-234 phospho-peptide (pT217/pT220/pT231) (human); assay: BLI
[2] = target: Tau225-240 phospho-peptide (pT231) (human); assay: BLI
[3] = target: tPeptide 5 (204-222) (human); assay: one point ELISA
[4] = target: Tau204-222 phospho-peptide (pS214) (human); assay: one point ELISA
[5] = target: Tau204-222 phospho-peptide (pS214/pT217) (human); assay: one point ELISA
[6] = target: Tau204-222 phospho-peptide (pT212) (human); assay: one point ELISA
[7] = target: Tau204-222 phospho-peptide (pT212/pS214) (human); assay: one point ELISA
[8] = target: Tau204-222 phospho-peptide (pT212/pS214/pT217) (human); assay: one point ELISA
[9] = target: Tau204-222 phospho-peptide (pT212/pT217) (human); assay: one point ELISA
[10] = target: Tau204-222 phospho-peptide (pT217) (human); assay: one point ELISA
[11] = target: Tau191-214 phospho-peptide (pS199) (human); assay: one point ELISA
Chain of Tau191-214 phospho-peptide (pS199) (human) (peptide, as listed by the source): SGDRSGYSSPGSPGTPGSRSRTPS

[12] = target: Tau191-214 phospho-peptide (pS199/pS202) (human); assay: one point ELISA
[13] = target: Tau191-214 phospho-peptide (pS199/pS202/pT205) (human); assay: one point ELISA
[14] = target: Tau191-214 phospho-peptide (pS199/pT205) (human); assay: one point ELISA
[15] = target: Tau191-214 phospho-peptide (pS202) (human); assay: one point ELISA
[16] = target: Tau191-214 phospho-peptide (pS202/pT205) (human); assay: one point ELISA
[17] = target: Tau191-214 phospho-peptide (pT205) (human); assay: one point ELISA
[18] = target: pS199-old (SCBio-4PEG-Peptide, Tau191-214) (human); assay: one point ELISA
[19] = target: AT8 peptide (amino acids 195-215 of tau) (human); assay: BLI (Octet), phospho-peptide on streptavidin tips
Chain of AT8 peptide (amino acids 195-215 of tau) (human) (peptide, as listed by the source): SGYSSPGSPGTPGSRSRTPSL

Substance	pKd [1]	pKd [2]	OD (450 nm) [3] [OD450]	OD (450 nm) [4] [OD450]	OD (450 nm) [5] [OD450]	OD (450 nm) [6] [OD450]	OD (450 nm) [7] [OD450]	OD (450 nm) [8] [OD450]	OD (450 nm) [9] [OD450]	OD (450 nm) [10] [OD450]	OD (450 nm) [11] [OD450]	OD (450 nm) [12] [OD450]	OD (450 nm) [13] [OD450]	OD (450 nm) [14] [OD450]	OD (450 nm) [15] [OD450]	OD (450 nm) [16] [OD450]	OD (450 nm) [17] [OD450]	OD (450 nm) [18] [OD450]	pKd [19]
PT3-hIgG1 (antibody)	–	–	2.81	3.14	3.13	3.16	3.14	3.17	3.16	3.13	–	–	–	–	–	–	–	–	–
anti-tau antibody AT8 (ThermoFisher, Waltham, MA)	–	–	–	–	–	–	–	–	–	–	0.056	2.39	3.07	0.139	0.058	2.94	0.065	0.056	9.51
anti-tau antibody AT100 (ThermoFisher, Waltham, MA)	–	–	–	0.065	0.067	0.069	0.071	0.187	0.069	0.068	–	–	–	–	–	–	–	–	–
hIgG1 isotype control (antibody)	–	–	0.141	0.061	0.059	0.06	0.059	0.053	0.057	0.083	0.058	0.062	0.245	0.09	0.055	0.249	0.054	0.06	–

The next lines start with the values.

pKd [1]	pKd [2]	OD (450 nm) [3] [OD450]	OD (450 nm) [4] [OD450]	OD (450 nm) [5] [OD450]	OD (450 nm) [6] [OD450]	OD (450 nm) [7] [OD450]	OD (450 nm) [8] [OD450]	OD (450 nm) [9] [OD450]	OD (450 nm) [10] [OD450]	OD (450 nm) [11] [OD450]	OD (450 nm) [12] [OD450]	OD (450 nm) [13] [OD450]	OD (450 nm) [14] [OD450]	OD (450 nm) [15] [OD450]	OD (450 nm) [16] [OD450]	OD (450 nm) [17] [OD450]	OD (450 nm) [18] [OD450]	pKd [19]	Substance
11.30	11.22	–	–	–	–	–	–	–	–	–	–	–	–	–	–	–	–	–	AT180 (antibody)
–	–	0.281	–	–	–	–	–	–	–	–	–	–	–	–	–	–	–	–	IPN002-hIgG1 (antibody)
